According to patent US10206975 (dated 2019):

How the values were obtained:
human serum albumin [1] = molecular target: T1, human serum albumin (human, UniProt P02768); test: SPR
human complement C5 [2] = molecular target: human complement C5 (human); test: SPR, without albumin
human complement C5 [3] = molecular target: human complement C5 (human); test: SPR, with human albumin
human complement C5 [4] = molecular target: human complement C5 (human); test: SPR
human complement C5 [5] = molecular target: human complement C5 (human); test: other, ECL saturation binding
human complement C4 = molecular target: T2, human complement C4 (human); test: SPR, 40 and 400 nM
T2 chain 1: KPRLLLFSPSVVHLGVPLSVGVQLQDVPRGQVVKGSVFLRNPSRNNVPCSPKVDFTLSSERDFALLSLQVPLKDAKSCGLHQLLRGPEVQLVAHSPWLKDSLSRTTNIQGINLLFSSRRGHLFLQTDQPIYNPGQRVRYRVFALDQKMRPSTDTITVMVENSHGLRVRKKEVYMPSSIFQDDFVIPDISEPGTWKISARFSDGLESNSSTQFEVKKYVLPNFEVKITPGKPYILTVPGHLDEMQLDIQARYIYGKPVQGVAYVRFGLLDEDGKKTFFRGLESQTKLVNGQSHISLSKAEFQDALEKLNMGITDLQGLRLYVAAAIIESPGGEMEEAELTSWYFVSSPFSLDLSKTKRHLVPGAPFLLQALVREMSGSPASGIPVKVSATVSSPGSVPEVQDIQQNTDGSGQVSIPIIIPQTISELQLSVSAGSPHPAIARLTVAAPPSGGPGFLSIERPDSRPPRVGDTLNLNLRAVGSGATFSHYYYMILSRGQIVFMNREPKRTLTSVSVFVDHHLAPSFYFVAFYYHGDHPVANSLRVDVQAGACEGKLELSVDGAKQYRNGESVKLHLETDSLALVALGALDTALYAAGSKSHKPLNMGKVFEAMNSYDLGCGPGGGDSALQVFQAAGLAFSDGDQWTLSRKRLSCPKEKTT
T2 chain 2: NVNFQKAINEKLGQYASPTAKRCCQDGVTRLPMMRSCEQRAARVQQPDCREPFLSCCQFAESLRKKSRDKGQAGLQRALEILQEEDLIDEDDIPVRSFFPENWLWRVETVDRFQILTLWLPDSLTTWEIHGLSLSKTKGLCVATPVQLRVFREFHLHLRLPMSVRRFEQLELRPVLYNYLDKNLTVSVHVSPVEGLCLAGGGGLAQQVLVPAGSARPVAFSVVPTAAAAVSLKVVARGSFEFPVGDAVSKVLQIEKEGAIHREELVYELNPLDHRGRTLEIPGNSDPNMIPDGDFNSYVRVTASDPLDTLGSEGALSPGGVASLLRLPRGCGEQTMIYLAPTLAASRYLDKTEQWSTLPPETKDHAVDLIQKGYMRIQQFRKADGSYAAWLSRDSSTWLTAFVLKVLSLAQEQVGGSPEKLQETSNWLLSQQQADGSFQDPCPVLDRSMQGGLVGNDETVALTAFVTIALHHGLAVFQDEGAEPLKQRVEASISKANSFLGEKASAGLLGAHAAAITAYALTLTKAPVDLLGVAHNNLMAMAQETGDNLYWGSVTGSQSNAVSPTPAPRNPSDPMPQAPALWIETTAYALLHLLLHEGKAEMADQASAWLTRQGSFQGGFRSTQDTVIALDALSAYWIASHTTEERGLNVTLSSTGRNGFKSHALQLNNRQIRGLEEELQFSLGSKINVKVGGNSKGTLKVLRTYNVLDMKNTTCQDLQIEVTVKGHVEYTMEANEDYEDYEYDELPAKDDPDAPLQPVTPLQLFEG
T2 chain 3: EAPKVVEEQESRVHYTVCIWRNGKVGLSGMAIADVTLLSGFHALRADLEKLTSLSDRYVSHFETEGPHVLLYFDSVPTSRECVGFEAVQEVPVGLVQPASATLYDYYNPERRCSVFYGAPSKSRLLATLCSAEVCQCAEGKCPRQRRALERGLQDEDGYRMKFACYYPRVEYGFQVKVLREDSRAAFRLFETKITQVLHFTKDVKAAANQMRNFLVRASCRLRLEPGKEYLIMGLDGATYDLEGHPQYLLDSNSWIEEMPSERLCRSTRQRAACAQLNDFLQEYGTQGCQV

human complement C3 = human complement C3 (human, UniProt P01024); test: SPR, 40 and 400 nM
human complement C5 [6] = molecular target: human complement C5 (human); test: competition, ECL
bovine serum albumin = bovine serum albumin (bovine, UniProt P02769); test: SPR
rat serum albumin = molecular target: T3, rat serum albumin (rat, UniProt P02770); test: SPR
T3 chain: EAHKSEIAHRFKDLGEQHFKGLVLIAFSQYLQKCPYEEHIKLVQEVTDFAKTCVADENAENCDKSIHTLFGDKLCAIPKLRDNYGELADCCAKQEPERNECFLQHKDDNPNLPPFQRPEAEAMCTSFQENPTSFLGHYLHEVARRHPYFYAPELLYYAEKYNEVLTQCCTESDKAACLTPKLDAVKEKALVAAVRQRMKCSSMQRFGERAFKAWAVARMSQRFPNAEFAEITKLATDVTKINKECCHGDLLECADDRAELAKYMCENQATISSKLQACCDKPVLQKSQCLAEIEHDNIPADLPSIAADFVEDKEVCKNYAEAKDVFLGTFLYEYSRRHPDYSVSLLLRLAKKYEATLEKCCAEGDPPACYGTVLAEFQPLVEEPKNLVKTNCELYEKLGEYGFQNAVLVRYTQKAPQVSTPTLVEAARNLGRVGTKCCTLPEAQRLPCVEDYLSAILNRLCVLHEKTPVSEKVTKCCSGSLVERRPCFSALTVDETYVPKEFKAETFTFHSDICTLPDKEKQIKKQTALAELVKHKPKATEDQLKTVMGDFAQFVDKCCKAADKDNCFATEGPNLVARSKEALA

mouse serum albumin = mouse serum albumin (mouse, UniProt P07724); test: SPR
human serum albumin [7] = molecular target: T1, human serum albumin; test: SPR, 25C

Chain of bovine serum albumin (P02769 25-607): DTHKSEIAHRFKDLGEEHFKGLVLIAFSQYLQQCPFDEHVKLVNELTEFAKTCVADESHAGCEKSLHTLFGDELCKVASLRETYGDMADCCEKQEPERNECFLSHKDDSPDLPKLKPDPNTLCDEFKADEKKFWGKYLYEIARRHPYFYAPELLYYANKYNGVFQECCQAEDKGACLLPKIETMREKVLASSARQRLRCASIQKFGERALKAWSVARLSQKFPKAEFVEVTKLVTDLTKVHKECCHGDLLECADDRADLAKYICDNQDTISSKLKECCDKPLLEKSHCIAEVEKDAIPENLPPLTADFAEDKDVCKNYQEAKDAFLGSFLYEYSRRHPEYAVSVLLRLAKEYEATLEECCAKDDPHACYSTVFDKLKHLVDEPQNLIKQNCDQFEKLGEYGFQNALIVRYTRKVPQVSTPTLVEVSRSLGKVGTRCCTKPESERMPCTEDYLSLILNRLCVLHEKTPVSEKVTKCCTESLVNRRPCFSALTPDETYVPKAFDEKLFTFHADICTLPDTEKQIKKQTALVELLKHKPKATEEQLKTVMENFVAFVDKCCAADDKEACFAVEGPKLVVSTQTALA
Chain of mouse serum albumin (P07724 25-608): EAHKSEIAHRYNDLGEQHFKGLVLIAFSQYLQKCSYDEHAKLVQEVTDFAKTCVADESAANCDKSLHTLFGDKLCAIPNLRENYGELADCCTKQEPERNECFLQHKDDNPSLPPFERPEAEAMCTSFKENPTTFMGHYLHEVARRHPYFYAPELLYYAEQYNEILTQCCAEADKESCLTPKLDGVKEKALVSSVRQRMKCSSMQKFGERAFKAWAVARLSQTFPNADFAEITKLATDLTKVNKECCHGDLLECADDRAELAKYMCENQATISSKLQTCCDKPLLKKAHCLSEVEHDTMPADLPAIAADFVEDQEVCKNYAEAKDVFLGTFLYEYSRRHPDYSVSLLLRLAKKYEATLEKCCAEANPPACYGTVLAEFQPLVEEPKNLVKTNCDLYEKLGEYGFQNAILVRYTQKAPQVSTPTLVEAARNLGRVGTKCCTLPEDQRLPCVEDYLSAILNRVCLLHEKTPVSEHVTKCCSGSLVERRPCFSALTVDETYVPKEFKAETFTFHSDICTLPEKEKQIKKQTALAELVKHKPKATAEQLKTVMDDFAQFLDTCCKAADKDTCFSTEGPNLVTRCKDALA

B1: Z06175a-GS-ABD094-GS(G4S)2-Z06175a (designed binder)
chain 1: not shown
chain 2: LAEAKEAANAELDSYGVSDFYKRLIDKAKTVEGVEALKDAILAALP
chain 3: not shown
Human serum albumin [1]
  Kd: > 1 nM
Human complement C5 [2]
  Kd: 0.662 nM
Human complement C5 [3]
  Kd: 0.586 nM

B2: Z(755)-GS-ABD094 (designed binder)
chain 1: not shown
chain 2: B1 chain 2
Human complement C5 [4]
  Kd: 3.05 nM

B3: SULFO-TAG Z(748)-GS-ABD094 (designed binder)
chain 1: not shown
chain 2: B1 chain 2
Human complement C5 [5]
  Kd: 0.9 nM

B4: Z(756)-GS-ABD094 (designed binder)
chain 1: not shown
chain 2: B1 chain 2
Human complement C5 [4]
  Kd: 2.01 nM

B5: Z(750)-GS-ABD094 (designed binder)
chain 1: not shown
chain 2: B1 chain 2
Human complement C5 [4]
  Kd: 1.75 nM

B6: Z06175a-Z06175a-GS(G4S)2-ABD094 (designed binder)
chain 1: not shown
chain 2: not shown
chain 3: B1 chain 2
Human complement C5 [2]
  Kd: 1.38 nM
Human complement C5 [3]
  Kd: 1.13 nM

B7: Z(752)-GS-ABD094 (designed binder)
chain 1: not shown
chain 2: B1 chain 2
Human complement C5 [4]
  Kd: 2.58 nM

B8: Z(757)-GS-ABD094 (designed binder)
chain 1: not shown
chain 2: B1 chain 2
Human complement C5 [4]
  Kd: 2.34 nM

B9: Z06175a-Z06175a-GS-ABD094 (designed binder)
chain 1: not shown
chain 2: not shown
chain 3: B1 chain 2
Human complement C5 [2]
  Kd: 0.63 nM
Human complement C5 [3]
  Kd: 0.776 nM

B10: Z(749)-GS-ABD094 (designed binder)
chain 1: not shown
chain 2: B1 chain 2
Human complement C5 [4]
  Kd: 1.83 nM

B11: Z(748)-GS-ABD094 (Z06009a) (designed binder)
chain 1: not shown
chain 2: B1 chain 2
Human complement C5 [4]
  Kd: 1.31 nM
Human complement C4
  binding result: no binding
Human complement C3
  binding result: no binding

B12: Z05477a-GS-ABD094 (designed binder)
chain 1: not shown
chain 2: B1 chain 2
Human complement C5 [6]
  IC50: ~30 nM

B13: Z06175a-GS-ABD094 (designed binder)
chain 1: not shown
chain 2: B1 chain 2
Bovine serum albumin
  binding result: no binding
Rat serum albumin
  Kd: < 0.1 nM
Mouse serum albumin
  Kd: ~4 nM
Human complement C5 [4]
  Kd: 1.18 nM
Human serum albumin [7]
  Kd: < 1 nM
Human complement C5 [2]
  Kd: 1.43 nM
Human complement C5 [3]
  Kd: 1.43 nM

B14: ABD094-Z06175a (N-terminal ABD) (designed binder)
chain 1: B1 chain 2
chain 2: not shown
Human complement C5 [6]
  IC50: 17 nM

B15: Z(754)-GS-ABD094 (designed binder)
chain 1: not shown
chain 2: B1 chain 2
Human complement C5 [4]
  Kd: 2.28 nM

B16: Z06175a-GS(G4S)2-ABD094 (designed binder)
chain 1: not shown
chain 2: B1 chain 2
Human complement C5 [2]
  Kd: 3.75 nM

B17: Z(751)-GS-ABD094 (designed binder)
chain 1: not shown
chain 2: B1 chain 2
Human complement C5 [4]
  Kd: 1.87 nM

B18: OmCI (protein)
chain: MDSESDCTGSEPVDAFQAFSEGKEAYVLVRSTDPKARDCLKGEPAGEKQDNTLPVMMTFKNGTDWASTDWTFTLDGAKVTATLGNLTQNREVVYDSQSHHCHVDKVEKEVPDYEMWMLDAGGLEVEVECCRQKLEELASGRNQMYPHLKDCGGGGSENLYFQGSHHHHHH
Human complement C5 [6]
  IC50: 1.5 nM
